Measured values taken from patent publication US12365732 (23ANDME, dated 2025).

Tests used:
[1] = target: hu-CD96D1 D3-hFc (human); assay: ELISA, coated CD96D1D3-hFc
Procedure: (§1) CD96 binding of purified hybridoma antibodies: The hu-CD96 and cy-CD96 antigen binding ELISA was performed on the purified hybridoma antibodies. Briefly, 96-well MAXISORP® flat bottom plates (Thermo Fisher Scientific, Waltham, MA; Cat #439454) were coated overnight at 4° C. with 0.5 µg/mL of hu-CD96D1 D3-hFc and cynomolgus monkey CD96D1 D3-hFc in PBS. After removing the coating solution, unspecific binding was blocked by PBS containing 1% bovine serum albumin (blocking buffer) and incubation at room temperature for one hour. Plates were then washed three times with PBS and 0.05% TWEEN®-20 (wash buffer). Serial dilution of purified antibodies in PBS containing 0.5% BSA and 0.05% Tween 20 (ELISA buffer) was added to individual wells followed by incubation at room temperature for one hour with agitation. Plates were washed three times with wash buffer, then 100 µL/well of anti-mouse IgG-HRP (Thermo Fisher Scientific, Waltham, MA; Cat #626520) in ELISA buffer was added. […] Enzymatic color development was stopped with 50 µL/well of TMB stop solution (VWR/Avantor, Radnor, PA, USA; Cat #95059-200). Plates were analyzed with a SpectraMax i3X plate reader (Molecular Devices LLC, San Jose, CA, USA) at 450 nm.

[2] = target: T1, cynomolgus monkey CD96D1 D3-hFc (cynomolgus monkey); assay: ELISA, coated CD96D1D3-hFc
T1 construct: also called cy-CD96D1 D3
Procedure: as §1

[3] = target: T2, recombinant hu-CD96 (M1-M503-polyHis) (human, UniProt P40200 22-519); assay: ELISA, blocks hu-CD96-his binding to coated CD155-hFc
T2 construct: also called hu-CD96-his
T2 sequence: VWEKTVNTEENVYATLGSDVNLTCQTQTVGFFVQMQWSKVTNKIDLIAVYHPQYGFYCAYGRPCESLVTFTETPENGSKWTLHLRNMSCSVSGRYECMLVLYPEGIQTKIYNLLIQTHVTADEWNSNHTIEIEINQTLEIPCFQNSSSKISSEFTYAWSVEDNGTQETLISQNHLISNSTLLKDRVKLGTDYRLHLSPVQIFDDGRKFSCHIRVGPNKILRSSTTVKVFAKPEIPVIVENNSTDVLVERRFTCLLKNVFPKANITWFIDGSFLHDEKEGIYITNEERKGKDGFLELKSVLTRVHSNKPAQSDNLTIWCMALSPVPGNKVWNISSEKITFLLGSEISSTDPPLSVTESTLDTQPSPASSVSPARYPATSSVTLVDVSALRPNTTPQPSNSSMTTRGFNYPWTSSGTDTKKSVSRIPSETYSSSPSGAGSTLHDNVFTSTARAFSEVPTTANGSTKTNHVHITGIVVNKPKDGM
Procedure: as §1
CD155 receptor blocking of purified hybridoma antibodies: Human CD155 blocking ELISA was performed on purified hybridoma antibodies following the same protocol as described for CD96 (above), except that serial dilution of purified antibodies 50 µL/well (starting at 1 µM, 1:5 dilution) in assay buffer was added into the reaction.

[4] = target: T3, hu-CD96 isoform 2 on CHO cells (human, UniProt P40200 22-585); assay: FACS, Ab 2 nM
T3 construct: also called CHO-CD96 (isoform 2); CD96-CHOs
T3 sequence: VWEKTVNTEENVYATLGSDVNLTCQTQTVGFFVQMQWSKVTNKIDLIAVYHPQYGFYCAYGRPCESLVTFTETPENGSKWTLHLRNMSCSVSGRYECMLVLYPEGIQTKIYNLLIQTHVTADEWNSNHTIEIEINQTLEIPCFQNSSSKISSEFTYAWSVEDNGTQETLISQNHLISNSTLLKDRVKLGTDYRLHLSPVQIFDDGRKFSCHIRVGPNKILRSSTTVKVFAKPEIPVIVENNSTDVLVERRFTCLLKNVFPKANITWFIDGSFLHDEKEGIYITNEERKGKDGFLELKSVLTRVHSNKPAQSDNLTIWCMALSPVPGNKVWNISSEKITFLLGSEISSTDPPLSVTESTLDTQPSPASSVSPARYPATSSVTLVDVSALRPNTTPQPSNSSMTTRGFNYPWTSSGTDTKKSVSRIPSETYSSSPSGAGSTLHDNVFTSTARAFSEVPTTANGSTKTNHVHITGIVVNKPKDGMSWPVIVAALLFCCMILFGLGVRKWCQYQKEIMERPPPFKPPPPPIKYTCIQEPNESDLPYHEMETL
Procedure: (§2) Isoform 1 of hu-CD96 (Origene, catalog #RC213845) was transiently expressed in HEK293T cells following standard lipofectamine or Fugene transfection protocol. […] Cells were washed, and binding was detected by incubation with anti-mouse IgG-FITC (Biolegend, catalog #406001) for 20 minutes at 4° C. Cell binding was analyzed by flow cytometry with a CytoFLEX (Beckman Coulter). Binding curves were calculated as a percentage of cells positive for bound antibody.
(§3) Isoform 2 of hu-CD96 (DNA construct: Origene, catalog #RC221005) was expressed on a single-cell-clone-derived CHO stable cell line. Binding of the anti-CD96 antibodies to the CHO cells were determined as described above with isoform 1 of hu-CD96.

[5] = target: T3, hu-CD96 isoform 2 on CHO cells; assay: FACS, Ab 10 nM
Procedure: as §2, §3

[6] = target: T3, hu-CD96 isoform 2 on CHO cells; assay: FACS, Ab 50 nM
Procedure: as §2, §3

[7] = target: T3, hu-CD96 isoform 2 on CHO cells; assay: FACS, Ab 0.4 nM
Procedure: as §2, §3

[8] = target: T3, hu-CD96 isoform 2 on CHO cells; assay: FACS, Ab 0.08 nM
Procedure: as §2, §3

[9] = target: T3, hu-CD96 isoform 2 on CHO cells; assay: FACS, Ab 0.016 nM
Procedure: as §2, §3

[10] = target: T3, hu-CD96 isoform 2 on CHO cells; assay: FACS, Ab 0.0032 nM
Procedure: as §2, §3

[11] = target: T3, hu-CD96 isoform 2 on CHO cells; assay: FACS, % positive curve
Procedure: as §2, §3

[12] = target: T4, hu-CD96 Fc (human, biotinylated in Table 16); assay: SPR (Biacore), Fab
T4 construct: also called biotinylated hu-CD96-Fc

[13] = target: T5, hu-CD96 (soluble, isoform 2 extracellular domain) (human, UniProt P40200 22-516, biotinylated in Octet and blocking ELISA); assay: CD155 blocking ELISA
T5 construct: the assays name only hu-CD96; also called hCD96; biotinylated hu-CD96
T5 sequence: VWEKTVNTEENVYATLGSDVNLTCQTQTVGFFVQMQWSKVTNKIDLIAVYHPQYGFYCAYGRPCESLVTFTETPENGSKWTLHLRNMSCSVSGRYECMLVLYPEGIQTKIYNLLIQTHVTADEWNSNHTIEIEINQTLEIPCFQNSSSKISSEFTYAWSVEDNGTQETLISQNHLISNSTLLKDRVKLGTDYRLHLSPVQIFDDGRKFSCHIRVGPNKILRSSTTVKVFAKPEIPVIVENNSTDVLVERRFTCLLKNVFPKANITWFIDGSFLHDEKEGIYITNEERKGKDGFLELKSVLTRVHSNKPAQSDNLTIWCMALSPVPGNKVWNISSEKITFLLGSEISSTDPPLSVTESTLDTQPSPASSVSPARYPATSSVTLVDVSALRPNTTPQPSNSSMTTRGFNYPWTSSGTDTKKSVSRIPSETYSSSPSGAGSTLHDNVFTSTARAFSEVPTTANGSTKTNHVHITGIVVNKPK

[14] = target: T5, hu-CD96 (soluble, isoform 2 …); assay: BLI (Octet), biotin-CD96 on SA, Fab analyte

T1 sequence (chain, as listed by the source limits assumed): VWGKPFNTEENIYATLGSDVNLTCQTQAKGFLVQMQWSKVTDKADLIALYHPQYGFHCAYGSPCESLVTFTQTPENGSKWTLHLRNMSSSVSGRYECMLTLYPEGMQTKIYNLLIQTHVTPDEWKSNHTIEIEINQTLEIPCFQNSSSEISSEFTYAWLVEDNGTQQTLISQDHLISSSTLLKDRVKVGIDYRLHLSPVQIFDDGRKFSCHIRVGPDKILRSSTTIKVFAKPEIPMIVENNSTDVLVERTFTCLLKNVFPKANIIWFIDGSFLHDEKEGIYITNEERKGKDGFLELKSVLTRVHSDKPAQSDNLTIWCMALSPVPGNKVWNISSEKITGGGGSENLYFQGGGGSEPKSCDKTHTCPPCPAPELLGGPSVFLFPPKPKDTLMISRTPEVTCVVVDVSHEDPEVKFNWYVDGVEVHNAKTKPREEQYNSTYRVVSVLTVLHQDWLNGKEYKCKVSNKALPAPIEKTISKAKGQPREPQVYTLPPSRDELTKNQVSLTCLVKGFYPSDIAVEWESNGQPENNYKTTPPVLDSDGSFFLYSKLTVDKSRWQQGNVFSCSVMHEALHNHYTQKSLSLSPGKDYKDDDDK

B1: 12F8 (clone 12F8.12B5), purified hybridoma antibody (antibody, V domains shown)
VH: QVQLQQPGAELVTPGASVKLSCKASGFTFTNNWMHWVKQRPGQGLEWIGMIHPNSGITNINEKFKNKATVTVDKSSSTVYIQLSSLTSEDSAVYYCRSDGTYEGYFDYWGQGTPLTVSS
VL: DIVMTQSQKFMSTSVGDRVSVTCKASQNVGTAIVWYQKKPGQSPKTLIYSASTRYTGVPDRFTGSGSGTDFTLTISNVQSEDLAEYFCQQYSSSPLTFGSGTKLEIK
notes: murine hybridoma IgG
- EC50 [1]: 0.25 nM
- EC50 [2]: ~10 nM
- IC50 [3]: 0.95 nM

B2: 10H5, purified hybridoma antibody (antibody, V domains shown)
VH: QVQLQQSGADLARPGASIKLSCKASGYTFTGYGVTWVKQSTGQGLDWIGEIYPGTVITYYNAKFKGKATLTADKSSSTAYMELRSLTSEDSAVYFCARGLGRAMDYWGQGTSVTVSS
VL: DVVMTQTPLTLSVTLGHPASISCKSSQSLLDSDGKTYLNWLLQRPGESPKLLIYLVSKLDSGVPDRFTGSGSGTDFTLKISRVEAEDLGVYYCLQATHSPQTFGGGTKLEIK
notes: murine hybridoma IgG
- EC50 [1]: 0.05 nM
- IC50 [3]: 0.958 nM

B3: 1G8, purified hybridoma antibody (antibody, V domains shown)
VH: QVQLQQSGPELLKPGASVKISCKASGYTFTDYYINWVKQRPGQGLEWIGWIFPGTEGIYYNEKFKGKATLTVDKSSTTAYMLLSSLTSEDSAVYFCAREGDYRYYSPLGYWGQGTLVTVSA
VL: DIQMNQSPSSLSASLGDTITITCRVSQDISFWLSWYQQKPGNIPKLLIYKASNLHTGVPPRFSGSGSGTDFTLTISSLQPEDIAAYYCLQSQSYPYTFGGGTKLEIK
notes: murine hybridoma IgG
- % positive [4]: 26.2%
- % positive [5]: 35.3%
- % positive [6]: 34.8%
- % positive [7]: 7.1%
- % positive [8]: 0.2%
- % positive [9]: 0%
- % positive [10]: 0.1%
- EC50 [11]: 1.04 nM
- EC50 [1]: 0.072 nM
- binding result [2]: no binding
- IC50 [3]: 0.883 nM

B4: 16D9, purified hybridoma antibody (antibody, V domains shown)
VH: QVQLQQSGPELVKPGASVKISCKASGYNFNDYYINWVNQRPGQGLEWIGWIFPGRIITYYNEKFKGKATLTVDTSSNTAYMLLSSLTSEDSAVYFCARGVGEGFDYWGQGTTLTVSS
VL: ENVLTQSPAIMSATLGEKVTMNCRASSNVKYMYWYQQKSGVSPKLWIYYTSNLASGVPTRFSGSGSGTSYSLTISSVEAEDAATYYCQQFTSSPLTFGAGTKLELK
notes: murine hybridoma IgG
- EC50 [1]: 0.05 nM
- binding result [2]: no binding
- IC50 [3]: 1.06 nM

B5: mAb1.v7.NGS8 Fab (Fab, V domains shown)
VH: EVQLVQSGAEVKKPGASVKVSCKASGFTFTNNFMHWVRQAPGQGLEWIGMIHANSGITNINEKFKNRVTMTTDTSTSTAYMELRSLRSEDTAVYYCRSDGIYEGYFDYWGQGTLVTVSS
VL: DIQLTQSPSSLSASVGDRVTITCKASQNVGTAIVWYQQKPGKAPKVLIYSASTRYTGVPSRFSGSGSGTDFTLTISSLQPEDFATYYCQQYSSSPLTFGQGTKVEIK
notes: Fab with 8xHis tag; also called W33F/P52aA/T97I
- Kd [12]: 1.8 nM
- koff [12]: 2.53e-05 s⁻¹
- kon [12]: 16700 M⁻¹ s⁻¹
- IC50 [13]: 0.2 nM
- Kd [14]: 0.1 nM
